The results in this text go back to publication PMC7960628.

Assay in all cases: SEC; gel filtration chromatography of the Ni-NTA purified motif-foldon fusion proteins; trimer
(In general: SEC sorts molecules by how far they enter the pores of the column.)

The target in assay [1] is 6xHis-(GPP)5GFQGEK(GPP)5-foldon.
The target in assay [2] is 6xHis-(GPP)5GPKGER(GPP)5-foldon.
In assay [3] the target is 6xHis-(GPP)5GSQGEK(GPP)5-foldon (mouse | not stated).

Broadly, the stoichiometry N is the number of molecules, sites or subunits per partner or assembly.

As for “6xHis-(GPP)5GFQGEK(GPP)5-foldon (designed binder)”, the stoichiometry N in assay [1] came to 3.

Take “6xHis-(GPP)5GPKGER(GPP)5-foldon (designed binder)”: in assay [2], the stoichiometry N was determined as 3.

As to “6xHis-(GPP)5GSQGEK(GPP)5-foldon (designed binder)”, the stoichiometry N in assay [3] was determined as 3.
